Results published in patent publication US8722052B2, “Vaccinia virus protein A46 peptide and use thereof” (priority 2008, dated 2014).

Key:
TLR3 = molecular target: T1, TLR3 (Mus musculus, UniProt Q99MB1); assay: poly(I:C)-induced TNFα in RAW264.7 cells, ELISA; assay type: cell-based, murine; settings: peptide 5, 20 or 50 μM, 25 μg/ml Poly(I:C), 24 h
T1 construct: endogenous in cells; host or cells: RAW264.7
Procedure: FIGS. 10A and B are bar charts showing the effect of A464 on poly(I:C)-induced TNFα in murine RAW264.7 cells. Cells were seeded in 96 well plates (1.5×10^5 cells/nil) 24 hours before treatment. […] Supernatants were collected 24 hours after stimulation and assayed for TNFα by ELISA (A) and cells were assayed for viability by the MTT assay (B). No peptides were added to the control wells (black bars). Data is representative of at least three experiments each performed in triplicate and is expressed as mean±s.d;
Cytokine and chemokine production from cells or mouse serum was measured by ELISA using Duoset kits from R&D systems, according to the manufacturer's instructions.
In order to determine whether A464 (SEQ ID No. 20) was specific for TLR4, other TLR pathways were next assayed for sensitivity to A464 (SEQ ID No. 20). A scrambled version of A464 (SEQ ID No. 20) peptide was designed to use as a further control peptide, and this had the sequence: […] (ConA464, SEQ ID No. 32). The A464R (SEQ ID No. 20) and ConA464 (SEQ ID No. 32) peptides were assayed for inhibition of TLR2 signalling in THP-1 cells. Pam3CysK4 (S-(2,3-bis(palmitoyloxy)-(2-RS)-propyl)-N-palmitoyl-(R)-Cys-(S)-Ser-(S)-Lys(4)) is a synthetic tripalmitoylated lipopeptide that is recognized by a TLR2/TLR1 heterodimer and leads to activation of NFκB through a Mal- and MyD88-dependent pathway. […]

IRF3 = assay: LPS-induced IRF3 activation, IRF3-GAL4 reporter assay in HEK293_TLR4 cells; assay type: cell-based, human; settings: peptide 1, 5 or 10 μM, 10 ng/ml LPS 6 h
Procedure: FIG. 26 is a bar chart showing the effect of A464 on LPS-induced IRF3 activation in HEK293 cells. HEK293_TLR4 cells were seeded in 96 well plate (1.5×10^5 cells/ml) 24 hours before transfection with the plasmid DNA. Cells were transfected with a plasmid encoding IRF3-GAL4, together with pFR-luciferase and TK-Renilla reporter gene plasmids. The total amount of plasmid DNA transfected into the cells was made up to 230 ng/well by adding pcDNA. A464 (SEQ ID NO. 20) was added to the cells at a concentration of 1, 5 or 10 μM the next day, and cells were stimulated with 10 ng/ml LPS 1 hour after treatment with the peptide for 6 hours. Cells were harvested and assayed for IRF3 activation by reporter gene assay. No peptides were added to the control wells (black bars). Data is representative of two experiments, each performed in triplicate and is expressed as mean fold induction±s.d. relative to control levels;
HEK293 cells were transfected using GeneJuice® a proprietary non-toxic transfection reagent. 200 μl/well cells at a density of 1×10^5 cells/ml were seeded the day before transfection. 0.8 μl of GeneJuice was mixed with 9.2 μl of serum-free DMEM (SFM) per transfection and incubated for 5 min at room temperature before adding the appropriate amount of the plasmid DNA. […] Luciferase activity was analysed using a luminometer.

T1 sequence (Q99MB1 26-905): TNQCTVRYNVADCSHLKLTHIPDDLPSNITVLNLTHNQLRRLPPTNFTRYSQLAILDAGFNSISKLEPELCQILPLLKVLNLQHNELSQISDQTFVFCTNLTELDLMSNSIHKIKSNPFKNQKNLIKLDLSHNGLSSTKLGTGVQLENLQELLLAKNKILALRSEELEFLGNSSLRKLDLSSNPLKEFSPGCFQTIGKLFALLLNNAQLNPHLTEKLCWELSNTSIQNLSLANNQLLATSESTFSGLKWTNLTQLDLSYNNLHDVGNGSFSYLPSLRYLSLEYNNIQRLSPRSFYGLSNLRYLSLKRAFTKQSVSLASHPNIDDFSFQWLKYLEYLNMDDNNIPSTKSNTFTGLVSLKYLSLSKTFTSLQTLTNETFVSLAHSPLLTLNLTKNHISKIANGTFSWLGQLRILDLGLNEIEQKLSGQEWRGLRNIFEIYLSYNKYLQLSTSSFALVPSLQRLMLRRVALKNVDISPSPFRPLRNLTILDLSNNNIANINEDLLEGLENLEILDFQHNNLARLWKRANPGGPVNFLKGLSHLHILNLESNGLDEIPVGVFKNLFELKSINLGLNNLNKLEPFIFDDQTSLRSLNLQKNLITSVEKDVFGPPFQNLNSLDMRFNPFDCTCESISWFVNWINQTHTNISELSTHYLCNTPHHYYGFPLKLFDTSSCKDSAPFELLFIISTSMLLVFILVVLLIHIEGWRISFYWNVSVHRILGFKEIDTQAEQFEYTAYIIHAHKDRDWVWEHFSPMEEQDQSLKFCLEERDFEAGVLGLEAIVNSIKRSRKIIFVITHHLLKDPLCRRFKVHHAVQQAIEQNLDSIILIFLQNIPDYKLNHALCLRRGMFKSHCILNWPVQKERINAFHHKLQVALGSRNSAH

KYSFKLILAEYRRRRRRRRR [Peptide A464]
inhibition of poly(I:C)-induced mTNFα production (TLR3): some inhibition of mTNFα production in response to stimulation with 25 mg/ml Poly(I:C) was seen but only at a concentration of 50 μM | inhibition of LPS-induced IRF3 activation (IRF3): completely inhibited LPS-induced IRF3 activation at 1 μM
